Laboratory results reported in IntAct's records for PubMed 29039417.

B1: Protein PTHB1 (Homo sapiens), Q3SYG4 (parent)
chain: MSLFKARDWWSTILGDKEEFDQGCLCLANVDNSGNGQDKIIVGSFMGYLRIFSPHPAKTGDGAQAEDLLLEVDLRDPVLQVEVGKFVSGTEMLHLAVLHSRKLCVYSVSGTLGNVEHGNQCQMKLMYEHNLQRTACNMTYGSFGGVKGRDLICIQSMDGMLMVFEQESYAFGRFLPGFLLPGPLAYSSRTDSFLTVSSCQQVESYKYQVLAFATDADKRQETEQQKLGSGKRLVVDWTLNIGEQALDICIVSFNQSASSVFVLGERNFFCLKDNGQIRFMKKLDWSPSCFLPYCSVSEGTINTLIGNHNNMLHIYQDVTLKWATQLPHIPVAVRVGCLHDLKGVIVTLSDDGHLQCSYLGTDPSLFQAPNVQSRELNYDELDVEMKELQKIIKDVNKSQGVWPMTEREDDLNVSVVVSPNFDSVSQATDVEVGTDLVPSVTVKVTLQNRVILQKAKLSVYVQPPLELTCDQFTFEFMTPDLTRTVSFSVYLKRSYTPSELEGNAVVSYSRPTDRNPDGIPRVIQCKFRLPLKLICLPGQPSKTASHKITIDTNKSPVSLLSLFPGFASQSDDDQVNVMGFHFLGGARITVLASKTSQRYRIQSEQFEDLWLITNELILRLQEYFEKQGVKDFACSFSGSIPLQEYFELIDHHFELRINGEKLEELLSERAVQFRAIQRRLLARFKDKTPAPLQHLDTLLDGTYKQVIALADAVEENQGNLFQSFTRLKSATHLVILLIALWQKLSADQVAILEAAFLPLQEDTQELGWEETVDAAISHLLKTCLSKSSKEQALNLNSQLNIPKDTSQLKKHITLLCDRLSKGGRLCLSTDAAAPQTMVMPGGCTTIPESDLEERSVEQDSTELFTNHRHLTAETPRPEVSPLQGVSE
partner: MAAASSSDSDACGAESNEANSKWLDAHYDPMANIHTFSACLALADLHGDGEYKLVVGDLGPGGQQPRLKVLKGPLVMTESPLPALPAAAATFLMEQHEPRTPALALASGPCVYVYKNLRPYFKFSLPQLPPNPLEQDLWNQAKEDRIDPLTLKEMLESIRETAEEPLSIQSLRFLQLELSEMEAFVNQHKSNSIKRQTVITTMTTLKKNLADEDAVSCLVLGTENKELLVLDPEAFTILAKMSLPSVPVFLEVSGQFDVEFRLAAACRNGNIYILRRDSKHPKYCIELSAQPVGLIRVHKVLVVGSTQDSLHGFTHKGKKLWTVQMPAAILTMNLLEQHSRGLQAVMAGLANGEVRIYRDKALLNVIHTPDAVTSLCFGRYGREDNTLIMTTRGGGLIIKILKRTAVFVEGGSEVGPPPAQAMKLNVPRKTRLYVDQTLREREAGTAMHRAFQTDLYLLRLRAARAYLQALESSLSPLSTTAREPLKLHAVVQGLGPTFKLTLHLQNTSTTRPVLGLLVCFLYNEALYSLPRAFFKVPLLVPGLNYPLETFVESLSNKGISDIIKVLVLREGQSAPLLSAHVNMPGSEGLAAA

Variants of: B1
Details: with bbs1_human BBS1, Q8NFJ9

Variant | effect of a mutation on the interaction
Q627A | with no effect
Q627K | with no effect
Q627E | with no effect
Q627T | disrupting interaction strength
L620K | with no effect
L620E | with no effect
L620A | with no effect
L620F | disrupting interaction strength
F646E | with no effect
F646K | with no effect
F646A | with no effect
S635K | with no effect
S635E | with no effect
S635A | with no effect
I649K | with no effect
I649A | with no effect
I649E | with no effect
F624A | with no effect
F624K | with no effect
F624E | with no effect
I640K | with no effect
I640E | with no effect
I640A | with no effect

Variant | effect of a mutation on the interaction
L642A | with no effect
L642K | with no effect
L642E | with no effect
E625K | with no effect
E625A | with no effect
L648A | with no effect
L648K | with no effect
L648E | with no effect
K630A | with no effect
K630E | with no effect
D631K | with no effect
D631A | with no effect
D631E | with no effect
Q643E | with no effect
Q643K | with no effect
Q643A | with no effect
E647A | with no effect
E647K | with no effect
Y645E | with no effect
Y645A | with no effect
Y645K | with no effect
G638E | with no effect
G638K | with no effect

Variant | effect of a mutation on the interaction
G638A | with no effect
R619K | with no effect
R619E | with no effect
S637E | with no effect
S637A | with no effect
S637K | with no effect
Y623E | with no effect
Y623A | with no effect
Y623K | with no effect
A633V | disrupting interaction strength
A633K | with no effect
A633E | with no effect
V629A | with no effect
V629E | with no effect
V629K | with no effect
S639K | with no effect
S639A | with no effect
S639E | with no effect
D650E | with no effect
D650K | with no effect
D650A | with no effect
F632E | with no effect
F632K | with no effect

Variant | effect of a mutation on the interaction
F632A | with no effect
C634S | disrupting interaction strength
C634K | with no effect
C634A | with no effect
C634E | with no effect
E644K | with no effect
E644A | with no effect
K626E | with no effect
K626A | with no effect
Q621E | with no effect
Q621A | with no effect
Q621K | with no effect
P641K | with no effect
P641A | with no effect
P641E | with no effect
G628A | with no effect
G628E | with no effect
G628K | with no effect
E622A | with no effect
E622K | disrupting interaction strength
F636K | with no effect
F636E | with no effect
F636A | with no effect
